B1: 10xHis-RHO-1^WT (wild type RHO-1, 1-188 AA) (domain or fragment)
chain: not shown
notes: RHO-1 (RhoA in humans), C. elegans, residues 1-188 (without the CAAX motif), amplified from cDNA; Cloned into pET-19b; also called His-tagged RHO-1; RhoA; source: E. coli BL21 (DE3), purified (Ni-NTA)
B2: 10xHis-RHO-1^Q63L (constitutively active RHO-1, 1-188 AA) (domain or fragment)
chain: not shown
notes: RHO-1 (RhoA in humans), C. elegans, residues 1-188, with Q63L made by site-directed mutagenesis of the wild type construct; Cloned into pET-19b; source: E. coli BL21 (DE3), purified (Ni-NTA)

Legend:
[1] = biological target: T1, GST-ANI-1^C-term (681-1159 AA) (C. elegans, UniProt Q9XTT4 681-1159); assay: pull-down; ~4 μg GST-ANI-1 fragment on Glutathione Sepharose beads mixed with ~4 μg purified 10xHis-RHO-1 in 300 μl binding buffer (20 mM Tris pH 7.4, 150 mM NaCl, 5 mM MgCl2, 0.1% Triton X-100, 1 mM DTT) with 1 mM GTP, 4°C, 1.5 h; bound RHO-1 detected by anti-His immunoblot; conditions: both partners purified
T1 construct: ANI-1 (anillin homolog), C. elegans, residues 681-1159 comprising the RBD, C2 region and PH domain; Cloned into pGEX-4T; used on the beads directly in the pull-down; also called GST-tagged C-terminus of ANI-1; anillin C-terminus; source: E. coli BL21 (DE3), purified on Glutathione Sepharose 4B beads
T1 sequence (looked up): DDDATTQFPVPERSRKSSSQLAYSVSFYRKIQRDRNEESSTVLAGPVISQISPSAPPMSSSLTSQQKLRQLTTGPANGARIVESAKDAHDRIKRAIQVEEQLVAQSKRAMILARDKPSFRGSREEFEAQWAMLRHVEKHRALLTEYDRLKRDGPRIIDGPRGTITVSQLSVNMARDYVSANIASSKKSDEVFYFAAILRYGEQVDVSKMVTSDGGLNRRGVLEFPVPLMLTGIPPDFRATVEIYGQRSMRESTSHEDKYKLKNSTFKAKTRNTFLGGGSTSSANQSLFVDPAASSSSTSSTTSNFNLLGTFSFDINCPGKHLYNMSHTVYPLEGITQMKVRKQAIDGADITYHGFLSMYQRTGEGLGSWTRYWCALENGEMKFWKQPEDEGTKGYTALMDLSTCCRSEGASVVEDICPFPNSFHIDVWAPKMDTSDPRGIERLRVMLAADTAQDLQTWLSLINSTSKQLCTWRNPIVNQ

[2] = biological target: T2, GST-ANI-1^Link+C-term (460-1159 AA) (C. elegans, UniProt Q9XTT4 460-1159); assay: as above; conditions: both partners purified
T2 construct: ANI-1 (anillin homolog), C. elegans, residues 460-1159: linker region, RBD, C2 region and PH domain; Cloned into pGEX-4T; used on the beads directly in the pull-down; also called protein consisting of the linker region and C-terminus; source: E. coli BL21 (DE3), purified on Glutathione Sepharose 4B beads
T2 sequence (looked up): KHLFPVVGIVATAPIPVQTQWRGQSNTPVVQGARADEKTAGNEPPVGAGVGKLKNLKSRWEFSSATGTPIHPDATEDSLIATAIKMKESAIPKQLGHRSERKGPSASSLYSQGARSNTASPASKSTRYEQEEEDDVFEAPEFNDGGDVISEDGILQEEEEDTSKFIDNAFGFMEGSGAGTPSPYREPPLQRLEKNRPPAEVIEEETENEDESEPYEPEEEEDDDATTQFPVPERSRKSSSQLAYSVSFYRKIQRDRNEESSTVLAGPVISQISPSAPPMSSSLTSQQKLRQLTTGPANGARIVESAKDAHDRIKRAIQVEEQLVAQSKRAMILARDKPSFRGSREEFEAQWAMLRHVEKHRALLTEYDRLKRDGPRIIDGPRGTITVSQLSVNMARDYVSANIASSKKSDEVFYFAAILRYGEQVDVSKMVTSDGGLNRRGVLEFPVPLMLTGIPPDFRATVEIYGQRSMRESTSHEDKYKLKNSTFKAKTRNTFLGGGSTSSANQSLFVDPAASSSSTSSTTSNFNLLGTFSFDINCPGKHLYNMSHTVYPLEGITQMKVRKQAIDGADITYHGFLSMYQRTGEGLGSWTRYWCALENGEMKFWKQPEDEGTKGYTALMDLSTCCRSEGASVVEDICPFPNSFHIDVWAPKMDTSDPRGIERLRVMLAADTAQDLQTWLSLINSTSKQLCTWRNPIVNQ

| Binder | binding result [1] | binding result [2] |
| --- | --- | --- |
| B1 | binds |  |
| B2 | binds | binds |

Source: paper PMC12013513, “Anillin mediates unilateral furrowing during cytokinesis by limiting RhoA binding to its effectors” (The Journal of Cell Biology, 2025)
